Laboratory results: patent US20250376509A1 (Janssen / Centocor, published 2025)

Target: T1, CALRins5 (Type 2 mutant calreticulin) on ELF-153 MPL CALRins5 cells (human, UniProt P27797 18-417)
T1 sequence (looked up): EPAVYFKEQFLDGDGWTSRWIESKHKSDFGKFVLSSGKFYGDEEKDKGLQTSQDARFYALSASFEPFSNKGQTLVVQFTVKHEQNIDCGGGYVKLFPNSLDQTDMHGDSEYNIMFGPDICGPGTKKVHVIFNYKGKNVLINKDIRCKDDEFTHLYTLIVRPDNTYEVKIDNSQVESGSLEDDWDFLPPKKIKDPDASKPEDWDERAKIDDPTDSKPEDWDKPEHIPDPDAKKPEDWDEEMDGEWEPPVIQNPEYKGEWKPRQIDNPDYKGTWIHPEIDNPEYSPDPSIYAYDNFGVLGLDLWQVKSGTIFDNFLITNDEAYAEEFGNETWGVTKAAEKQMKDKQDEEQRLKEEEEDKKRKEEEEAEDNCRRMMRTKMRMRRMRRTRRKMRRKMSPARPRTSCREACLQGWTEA
Assay: cell-based or functional assay

B1: C3CRB73, a CALRmut x CD3 bispecific antibody (bispecific antibody, human IgG1, kappa, L234A L235A)
heavy: EVQLLESGGGLVQPGGSLRLSCAVSGIDLSNNAISWVRQAPGKGLEYVGVIGNTGDTYYADSAKGRFTISRDSSKTTLYLQMNSLRAEDTAVYFCVRGPPSYSSSVKNIWGQGTLVTVSSASTKGPSVFPLAPSSKSTSGGTAALGCLVKDYFPEPVTVSWNSGALTSGVHTFPAVLQSSGLYSLSSVVTVPSSSLGTQTYICNVNHKPSNTKVDKKVEPKSCDKTHTCPPCPAPEAAGGPSVFLFPPKPKDTLMISRTPEVTCVVVSVSHEDPEVKFNWYVDGVEVHNAKTKPREEQYNSTYRVVSVLTVLHQDWLNGKEYKCKVSNKALPAPIEKTISKAKGQPREPQVYTLPPSREEMTKNQVSLSCAVKGFYPSDIAVEWESNGQPENNYKTTPPVLDSDGSFFLVSKLTVDKSRWQQGNVFSCSVMHEALHNRFTQKSLSLSPGK
light: DIQMTQSPSSVSASVGDRVTITCQSSQSVYNNNWLSWLQQKPGKAPKRLIYDASKLESGVPSRFSGSGSGTDFTLTISSVQPEDAATYYCAGGFTGNVYTFGGGTKVEIKRTVAAPSVFIFPPSDEQLKSGTASVVCLLNNFYPREAKVQWKVDNALQSGNSQESVTEQDSKDSTYSLSSTLTLSKADYEKHKVYACEVTHQGLSSPVTKSFNRGEC
chain: DIQMTQSPSSLSASVGDRVTITCRARQSIGTAIHWYQQKPGCAPKLLIKYASESISGVPSRFSGSGSGTDFTLTISSLQPEDFATYYCQQSGSWPYTFGQGTKLEIKGGGSGGSGGCPPCGGSGGEVQLVESGGGLVKPGGSLRLSCAASGFTFSRYNMNWVRQAPGKGLEWVSSISTSSNYIYYADSVKGRFTFSRDNAKNSLDLQMSGLRAEDTAIYYCTRGWGPFDYWGCGTLVTVSSEPKSSDKTHTCPPCPAPEAAGGPSVFLFPPKPKDTLMISRTPEVTCVVVSVSHEDPEVKFNWYVDGVEVHNAKTKPREEQYNSTYRVVSVLTVLHQDWLNGKEYKCKVSNKALPAPIEKTISKAKGQPREPQVYTLPPSREEMTKNQVSLWCLVKGFYPSDIAVEWESNGQPENNYKTTPPVLDSDGSFFLYSKLTVDKSRWQQGNVFSCSVMHEALHNHYTQKSLSLSPGK
For B1, the “median EC50 of ELF-153 MPL CALRins5 cells cytotoxicity using patient whole blood” value was 640 pM.
